Sequences and labels used below:
T1: recombinant human EGFL7 (human, UniProt Q9UHF1 24-273, limits assumed)
T1 construct: Produced in E. coli and His6/poly-His-tagged; also called hEGFL7; poly-His-tagged EGFL7
T1 sequence (looked up): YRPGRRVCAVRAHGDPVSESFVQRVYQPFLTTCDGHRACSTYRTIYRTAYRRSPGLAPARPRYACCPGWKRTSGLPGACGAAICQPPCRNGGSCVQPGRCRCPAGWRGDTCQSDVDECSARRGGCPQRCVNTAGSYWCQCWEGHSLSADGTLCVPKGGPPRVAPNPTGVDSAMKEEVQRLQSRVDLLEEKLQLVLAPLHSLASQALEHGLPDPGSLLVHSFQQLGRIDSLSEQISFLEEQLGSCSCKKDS

T2: recombinant mouse EGFL7 (mouse, UniProt Q9QXT5 22-275, limits assumed)
T2 construct: also called mEGFL7; poly-His-tagged EGFL7
T2 sequence (looked up): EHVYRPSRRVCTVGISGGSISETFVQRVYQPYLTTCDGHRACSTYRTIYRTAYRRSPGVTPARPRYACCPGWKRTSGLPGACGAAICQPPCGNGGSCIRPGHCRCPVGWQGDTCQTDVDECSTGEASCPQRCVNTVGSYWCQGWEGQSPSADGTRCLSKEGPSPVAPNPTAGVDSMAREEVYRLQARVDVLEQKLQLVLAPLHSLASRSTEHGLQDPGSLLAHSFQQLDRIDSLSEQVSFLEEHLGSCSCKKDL

B1: anti-EGFL7 mumab 4F11.1.8 (antibody, IgG2b, V domains shown)
VH: QIQLVQSGPELKKPGETVKISCKASGHTFTTYGMSWVKQAPGKGLKWMGWINTHSGVPTYADDFKGRFAFSLETSASTAHLQINNLKNEDTATYFCARLGSSAVDYWGQGTTVTVSS
VL: DIVLTQSPASLAVSLGQRATISCKASQSVDYDGDSYMSWYQQKPGQPPKLLIYGASNLESGIPARFSGSGSGTDFTLNIHPVEEEDAATYYCQQNNEDPYTFGGGTKVEIKR
notes: ATCC PTA-7343

In assay [1] the target is B1. In words: peptide competition at 10-fold molar excess with EGFL7 protein; immunoprecipitation and SDS-PAGE.
The target in assay [2] is T1, recombinant human EGFL7. Briefly: SPR, BIAcore 3000, room temperature; antibody on CM5 chip, poly-His-tagged EGFL7 injected; 1:1 global fit; Mab stock in 50 mM Tris/125 mM NaCl. The protocol: (§1) Binding affinity of the Mabs for both human and mouse EGFL7 was determined by surface plasmon resonance using Pharmacia BIAcore® 3000 (BIAcore AB, Uppsala, Sweden) at room temperature (see, e.g., Morton et al., Meth. Enzymol. 295:268-94 (1998)). Anti-EGFL7 antibodies were immobilized to the sensor chip (CM5) through primary amine groups. The carboxymethylated sensor chip surface matrix was activated by injecting 20 μl of a mixture of 0.025 M N-hydroxysuccinimide and 0.1 M N-ethyl-N′(dimethylaminopropyl) carbodiimide at 5 μl/min 5-10 μl of 10 μg/ml solution of […] in 10 mM sodium acetate, pH 4.5, were injected at 5 μl/min After coupling, unoccupied sites on the chip were blocked by injecting 20 μl of 1M ethanolamine, pH 8.5. The running buffer was PBS containing 0.05% polysorbate 20. For kinetic measurements, two-fold serial dilutions of poly-His-tagged EGFL7 in running buffer were injected over the flow cells for 3 minutes at a flow rate of 30 μl/min and the bound polyhis tagged EGFL7 was allow to dissociate for 20 minutes. The binding surface was regenerated by injecting 20 μl of 10 mM glycine.HCl (pH 1.5). […] There was no significant non-specific binding of poly-His-tagged EGFL7 to flow cell one. For calculating apparent binding affinity, data were analyzed using a 1:1 binding model using global fitting. […]
On the technique in general: In SPR one partner is held on a chip, and binding of the other changes the refractive index at the surface.

Assay [3] concerns the target T2, recombinant mouse EGFL7. The description is as above. The protocol:
as §1

For the molecule RPRYACCPGWKRT [polypeptide p2], the binding result in assay [1] was “binds”. The Kd is the concentration at which binding is half-saturated. With B1, the dissociation constant Kd in assay [2] is 0.473 nM; in assay [3] it was 0.756 nM.

Source of the values: US20100203041A1 (Genentech, published 2010).
